Data as given in paper PMC3088709, “Phosphorylation of the Yeast γ-Tubulin Tub4 Regulates Microtubule Function” (PLoS ONE, 2011).

Biological target: T1, Spc97-3HA (S. cerevisiae, UniProt P38863 1-823)
T1 construct: Spc97, budding yeast; tagged with 3HA in the TUB4-AID strain; source: S. cerevisiae (TUB4-AID SPC97-3HA strain), in lysate
T1 sequence (looked up): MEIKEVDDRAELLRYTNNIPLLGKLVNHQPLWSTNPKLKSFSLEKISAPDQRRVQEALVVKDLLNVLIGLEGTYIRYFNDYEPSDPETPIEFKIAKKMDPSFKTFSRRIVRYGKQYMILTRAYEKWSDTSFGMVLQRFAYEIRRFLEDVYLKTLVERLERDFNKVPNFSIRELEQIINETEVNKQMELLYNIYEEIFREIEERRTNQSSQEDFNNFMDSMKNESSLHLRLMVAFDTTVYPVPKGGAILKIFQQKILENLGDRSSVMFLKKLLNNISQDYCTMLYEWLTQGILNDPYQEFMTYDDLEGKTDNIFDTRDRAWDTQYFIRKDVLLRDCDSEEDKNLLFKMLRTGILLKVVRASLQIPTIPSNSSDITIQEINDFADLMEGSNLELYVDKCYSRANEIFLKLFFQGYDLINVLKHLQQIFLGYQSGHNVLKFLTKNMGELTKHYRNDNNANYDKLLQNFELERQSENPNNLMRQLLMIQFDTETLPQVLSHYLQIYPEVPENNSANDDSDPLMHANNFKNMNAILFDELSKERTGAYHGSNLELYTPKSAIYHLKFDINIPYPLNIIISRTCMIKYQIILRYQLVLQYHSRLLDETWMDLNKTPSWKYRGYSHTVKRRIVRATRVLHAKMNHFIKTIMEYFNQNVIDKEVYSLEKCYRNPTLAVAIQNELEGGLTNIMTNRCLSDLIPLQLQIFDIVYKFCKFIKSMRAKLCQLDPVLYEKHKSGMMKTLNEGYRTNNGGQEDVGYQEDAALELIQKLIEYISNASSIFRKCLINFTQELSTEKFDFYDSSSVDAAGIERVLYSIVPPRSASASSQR
Assay: co-IP; anti-HA immunoprecipitation of Spc97-3HA from lysates of TUB4-AID SPC97-3HA cells carrying pRS305 with TUB4, tub4-S74E, tub4-S100E or tub4-S360D, after 2 h of 0.5 mM IAA at 30°C to deplete Tub4-AID; blots with anti-Tub4, anti-Spc98, anti-Spc110 and anti-HA, normalised to precipitated Spc97-3HA
Conditions: partners not purified

B1: Tub4-S74E (natural protein, S. cerevisiae, UniProt P53378 1-473, looked up)
chain: MGGEIITLQAGQCGNHVGKFLWSQLAKEHAIGTDGLSQLPDSSTERDDDTKPFFRENSRNKFTPRAIMMDSEPEVIADVENTFRGFFDPRNTWVASDGASAGNSWANGYDIGTRNQDDILNKIDKEIDSTDNFEGFQLLHSVAGGTGSGLGSNLLEALCDRYPKKILTTYSVFPARSSEVVVQSYNTILALRRLIEDSDATVVFDNASLLNISGKVFRNPNIDLQHTNQLISTIISSVTNSIRFPSYMYSSMSSIYSTLIPSPELHFLSPSFTPFTSDYIHDDIAHKGHSSYDVMLDLLDPSNSLVSTAMNNPTYFNVYNTIIGNVEPRQISRAMTKLQQRIKFPSWSSSAMHVNIGRRSPYLPLQPNENEVSGMMLSNMSTVVNVFENACNTFDKVFAKGAFLNNYNVGDLFQSMQNVQDEFAESREVVQSLMEDYVAAEQDSYLDDVLVDDENMVGELEEDLDADGDHKLV
notes: Tub4, gamma-tubulin of budding yeast, phospho-mimicking mutant; source: S. cerevisiae, from integrated pRS305-tub4-S74E, in lysate
amount in complexes with Spc97-3HA relative to WT Tub4: ~75 % of WT Tub4
